The data set concerns the molecule itself. The data set can be described thus: SEC; purified tetramers on Superose 6 Increase 10/300 GL, 50 mM Tris, 150 mM NaCl, pH 7.4, 5 mM EDTA, 0.5 ml/min. For orientation: In gel filtration, larger molecules generally elute earlier.

Residue numbers refer to the chain shown, from its start. Names and notes keep the numbering of the source.

B1: C1r p.S654A (enzymatically inactive proenzyme C1r 'WT') (enzyme, human, UniProt P00736 18-705, looked up)
chain: SIPIPQKLFGEVTSPLFPKPYPNNFETTTVITVPTGYRVKLVFQQFDLEPSEGCFYDYVKISADKKSLGRFCGQLGSPLGNPPGKKEFMSQGNKMLLTFHTDFSNEENGTIMFYKGFLAYYQAVDLDECASRSKSGEEDPQPQCQHLCHNYVGGYFCSCRPGYELQEDTHSCQAECSSELYTEASGYISSLEYPRSYPPDLRCNYSIRVERGLTLHLKFLEPFDIDDHQQVHCPYDQLQIYANGKNIGEFCGKQRPPDLDTSSNAVDLLFFTDESGDSRGWKLRYTTEIIKCPQPKTLDEFTIIQNLQPQYQFRDYFIATCKQGYQLIEGNQVLHSFTAVCQDDGTWHRAMPRCKIKDCGQPRNLPNGDFRYTTTMGVNTYKARIQYYCHEPYYKMQTRAGSRESEQGVYTCTAQGIWKNEQKGEKIPRCLPVCGKPVNPVEQRQRIIGGQKAKMGNFPWQVFTNIHGRGGGALLGDRWILTAAHTLYPKEHEAQSNASLDVFLGHTNVEELMKLGNHPIRRVSVHPDYRQDESYNFEGDIALLELENSVTLGPNLLPICLPDNDTFYDLGLMGYVSGFGVMEEKIAHDLRFVRLPVANPQACENWLRGKNRMDVFSQNMFCAGHPSLKQDACQGDAGGVFAVRDPNTDRWVATGIVSWGIGCSRGYGFYTKVLNYVDWIKKEMEEED
notes: also called C1r WT with additional p.S654A mutation; source: 293-F cells co-transfected with C1s, purified as part of the tetramer as described (19)
A word on the stoichiometry N: it is the number of molecules, sites or subunits per partner or assembly. Take B1: the “stoichiometry N” value was found to be 2.

B2: C1r p.(D290G) with additional p.S654A mutation (enzyme, human, UniProt P00736 18-705, looked up)
chain: B1 chain with D273G
notes: also called c.869A>G; source: 293-F cells co-transfected with C1s, purified as part of the tetramer as described (19)
With B2, the “stoichiometry N” value stood at 2.

The values are drawn from paper PMC6848165, “C1R Mutations Trigger Constitutive Complement 1 Activation in Periodontal Ehlers-Danlos Syndrome” (Frontiers in Immunology, 2019).
